Experimental findings from publication PMC10620080, “The sex-specific factor SOA controls dosage compensation in Anopheles mosquitoes” are described below.

What is called Kd is the constant that tells how readily two partners part at equilibrium.

This data set deals with T1, MBP-SOA(1-331), myb+BTB (Anopheles gambiae, UniProt Q7Q6N8 1-331).
T1 sequence: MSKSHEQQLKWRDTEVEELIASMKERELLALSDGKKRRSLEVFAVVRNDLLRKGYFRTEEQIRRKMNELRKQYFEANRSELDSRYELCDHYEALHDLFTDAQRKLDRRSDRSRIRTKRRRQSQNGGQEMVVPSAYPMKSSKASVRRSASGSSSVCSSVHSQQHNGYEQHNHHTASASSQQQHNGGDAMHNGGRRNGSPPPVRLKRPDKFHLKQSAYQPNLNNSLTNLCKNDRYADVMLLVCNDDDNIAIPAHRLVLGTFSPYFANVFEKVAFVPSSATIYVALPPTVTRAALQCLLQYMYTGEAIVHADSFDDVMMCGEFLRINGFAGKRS
The data set can be described thus: fluorescence polarization; FP: 10 mM Na-HEPES pH 7.4, 150 mM NaCl, 1 mM TCEP, 0.1 g/l BSA, 5% glycerol, 0.05% Triton X-100, 5 nM DNA, 20 C; EMSA: 20 mM HEPES-KOH pH 7.5, 100 mM KCl, 0.05% NP-40, room temperature. As to conditions: protein: recombinant; tags: N-terminal His6-MBP; label: Cy5 on one strand; blunt. A general note: In fluorescence polarisation assays a small probe gives low polarisation when free and higher when bound to something large.

B1: CA10 dsDNA 20mer (dsDNA)
DNA 1: CACACACACACACACACACA
DNA 2: TGTGTGTGTGTGTGTGTGTG
Turning to B1, the dissociation constant (Kd) amounted to 40 nM.
